From publication PMC8181125

Tests used:
Conditions in all cases: glycan lost; control: wild type
[1] = immunofluorescence with Golgi marker TGN46, HEK293A
[2] = immunofluorescence colocalisation with ER marker ERP72, HEK293A
[3] = Western blot of core domain in conditioned medium
[4] = Western blot of transfected HEK293A cell lysates
[5] = Western blot of full-length PDGF-C in conditioned medium

Row | Substance | localisation_or_trafficking [1] | localisation_or_trafficking [2] | other: proteolytic processing [3] | expression_or_secretion [4] | expression_or_secretion [5]
1 | PDGF-C (full-length, PC-FL): N25A | no change | no change | no change | no change | no change
2 | PDGF-C (full-length, PC-FL): N25A + N55A | – | – | – | no change | no change
3 | PDGF-C (full-length, PC-FL): N25A + N254A | – | – | abolishes | no change | no change
4 | PDGF-C (full-length, PC-FL): N55A | no change | no change | no change | no change | no change
5 | PDGF-C (full-length, PC-FL): N55A + N254A | – | – | abolishes | no change | no change
6 | PDGF-C (full-length, PC-FL): N254A | no change | no change | – | no change | no change
7 | PDGF-C (full-length, PC-FL): triple NA mutant | – | – | abolishes | no change | no change
